Biological target: CK2β^1–193-DBCO-Sulfo-Cy5 (human) (UniProt P67870)
Assay: other fluorescence titration; quenching of the fluorescence of 30 nM CK2β^1–193-DBCO-Sulfo-Cy5 by 0.3 nM to 5 µM CK2α variant; Monolith NT.115, mode initial fluorescence; 25°C; 500 mM NaCl, 25 mM TRIS/HCl, pH 8.5, 0.05% Tween 20

Row | Kd | Molecule
1 | 13.6 nM | human CK2α (from UniProt P68400 1-391) (enzyme)
2 | 6.2 nM | human CK2α^Lys198Arg (enzyme) MSGPVPSRARVYTDVNTHRPREYWDYESHVVEWGNQDDYQLVRKLGRGKYSEVFEAINITNNEKVVVKILKPVKKKKIKREIKILENLRGGPNIITLADIVKDPVSRTPALVFEHVNNTDFKQLYQTLTDYDIRFYMYEILKALDYCHSMGIMHRDVKPHNVMIDHEHRKLRLIDWGLAEFYHPGQEYNVRVASRYFRGPELLVDYQMYDYSLDMWSLGCMLASMIFRKEPFFHGHDNYDQLVRIAKVLGTEDLYDYIDKYNIELDPRFNDILGRHSRKRWERFVHSENQHLVSPEALDFLDKLLRYDHQSRLTAREAMEHPYFYTVVKDQARMGSSSMPGGSTPVSSANMMSGISSVPTPSPLGPLAGSPVIAAANPLGMPVPAAAGAQQ

Reference: PMC9014129
